{"source": "paper PMC1361615", "about": "(Nucleic Acids Research, 2006)", "proteins": {"B1": {"name": "His-tagged RsrI N6-adenine DNA methyltransferase (M.RsrI), wild type (enzyme, UniProt P14751 1-319, looked up)", "chain": "MANRSHHNAGHRAMNALRKSGQKHSSESQLGSSEIGTTRHVYDVCDCLDTLAKLPDDSVQLIICDPPYNIMLADWDDHMDYIGWAKRWLAEAERVLSPTGSIAIFGGLQYQGEAGSGDLISIISHMRQNSKMLLANLIIWNYPNGMSAQRFFANRHEEIAWFAKTKKYFFDLDAVREPYDEETKAAYMKDKRLNPESVEKGRNPTNVWRMSRLNGNSLERVGHPTQKPAAVIERLVRALSHPGSTVLDFFAGSGVTARVAIQEGRNSICTDAAPVFKEYYQKQLTFLQDDGLIDKARSYEIVEGAANFGAALQRGDVAS"}}, "target": "the molecule itself", "test": "SEC", "data": [{"protein": "B1", "values": [{"measurement": "stoichiometry N", "value": 2}]}]}
